The text below walks through data of patent publication US20240360206A1 (ALZPATH, published 2024).

As usually defined, the EC50 (read off the curve) is the midpoint of the concentration-response curve. A high value points to lower potency in that assay.

One assay concerns the target T1, full length Tau (Tau441) (UniProt P10636-8 1-441).
T1 construct: also called synthetic full length Tau
As to the kind of experiment: indirect ELISA on Tau441, antibody titrated. A general note: In an ELISA, binding on a coated surface is turned into a signal by an enzyme label.

A further assay concerns the target T2, Peptide C (none).
T2 construct: only Peptide C; also called WZN-1C; T217
T2 peptide: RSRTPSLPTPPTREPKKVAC
As to the kind of experiment: indirect ELISA, peptide coated on the plate, HRP goat anti-rabbit antibody, TMB, read at 650 nm; axes without titles. On the procedure:
(§1) Antibodies were generated and purified. The antibodies were assayed using a standard indirect ELISA protocol. Briefly, peptide antigens corresponding to SEQ ID NOs: 74-81 were diluted to 1 μg/ml in PBS and plated onto a Greiner Bio One Microlon 96 well plate. Peptide antigens were produced by the manufacturer Abcam. WZN-1A and WZN-1B served as targets. WZN-1C, WZN-1D, WZN-1E, WZN-1F, WZN-1G, and WZN-1H served as negative controls. In the peptide antigen sequences, a phosphorylated residue is indicated by (pT) for phosphorylated threonine or (pS) for phosphorylated serine. After blocking with 1% BSA in PBS pH 7.4, antibodies were serially diluted 1 to 4 with an initial concentration of 1 μg/ml. After incubation, unbound antibodies were washed off with 1×TBST and HRP labeled goat anti-rabbit secondary antibody was applied according to the manufacturer's instructions. Subsequently, unbound secondary antibody was washed off with 1×TBST and 3,3′5,5′-tetramethylbenzidine (TMB) was applied for 5 minutes at room temperature and plates were read at 650 nm. Data is seen in FIG. 3.

The target of the next assay is T3, Peptide B (phosphothreonine at position 6 of the peptide (pT217 by the filing's name)).
T3 construct: also called WZN-1B; pT217b
T3 peptide: TPSLPTPPTREPKKVAC
Described as above. On the procedure: as §1

A further assay deals with T4, Peptide A (phosphothreonine at position 9 of the peptide (pT217 by the filing's name)).
T4 construct: also called WZN-1A; pT217a
T4 peptide: RSRTPSLPTPPTREPKC
The description is as above. On the procedure:
as §1

In another assay the target is T5, Peptide D (phosphothreonine at position 4 of the peptide (pT212 by the filing's name)).
T5 construct: also called WZN-1D; pT212
T5 peptide: RSRTPSLPTPPTREPKC
Described as above. Here is the method:
as §1

T1 sequence (P10636 other isoform, or with tags, fused parts or gaps limits assumed): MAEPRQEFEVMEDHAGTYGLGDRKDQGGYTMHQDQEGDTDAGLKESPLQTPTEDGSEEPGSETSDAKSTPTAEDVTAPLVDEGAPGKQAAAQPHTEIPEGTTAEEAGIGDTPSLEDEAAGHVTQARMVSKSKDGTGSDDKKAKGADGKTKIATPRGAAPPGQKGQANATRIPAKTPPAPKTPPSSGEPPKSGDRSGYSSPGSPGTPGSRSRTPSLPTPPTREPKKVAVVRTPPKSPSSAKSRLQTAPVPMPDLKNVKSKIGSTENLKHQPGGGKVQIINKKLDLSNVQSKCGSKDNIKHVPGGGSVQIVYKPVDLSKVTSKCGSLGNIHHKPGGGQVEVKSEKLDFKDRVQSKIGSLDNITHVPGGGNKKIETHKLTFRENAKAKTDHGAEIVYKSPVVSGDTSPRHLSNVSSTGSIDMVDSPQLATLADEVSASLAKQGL

B1: Antibody 6 (antibody, V domains shown)
VH: QSLEESGGRLVTPGTPLTLTCTVSGIDLSTHAMTWVRQAPGKGLEWIGVINPSGSAYYATWVNGRFTISKTSTTVDLKITSPTTGDTAKYFCARDYITAGDYYMDAFDPWGPGTLVTVSS
VL: DIVMTQTPASVSAAVGGTVTIKCQASQSISNQLSWYQQKSGQPPKLLIYRASTLASGVPSRFKGSGSGTEFTLTISDLECADAATYYCQQGYNRDNVDNLFGGGTEVVVKG
notes: Rabbit monoclonal antibody; also called 71H1L2
Regarding B1, the binding result was “no binding (tested: 10^4 ng/mL)” in the assay with full length Tau (Tau441) and “no binding” in the assay with Peptide C.

B2: Antibody 1 (antibody, V domains shown)
VH: QSLEESGGRLVTPGTPLTLTCTVSGFSLSSQKVGWVRQAPGKGLEWIGIINNYGSTYYASWAKGRFTISKTSTTVDLRITSLTAEDTATYFCARDPDGSIVFDIWGPGTLVTVSL
VL: AQVLTQTASPVSAAVGGTVTINCQSSQSVVYNNRLSWFQQKPGQPPKLLIYGASTLASGVPSRFKGSGSGTQFTLTISDVQCDDAATYYCLGSYDCSSGDCHAFGGGTEVVVKG
Consider B2, for which the binding result with Peptide C was “no binding”.

B3: Antibody 4 (antibody, V domains shown)
VH: QSLEESGGRLVTPGTPLTLTCTVSGFSLNNYKVGWVRQAPGKGLEWIGIINYYSQTYYASWAKGRFTISKTSTTVDLKLTSPTTEDTATYFCARDPDGSIVFDIWGPGTLVTVSL
VL: AQVLTQTASPVSAAVGSTVTINCQSSQSVYSNKRLAWFQLKPGQPPKLLIYGASTLASGVPSRFKGSGSGTQFTLTISDVQCDDAATYYCAGGYDCSTGDCWTFGGGTEVVVTG
For B3, in the assay with Peptide C, the binding result is reported as “no binding”.

B4: PT3 (antibody, V domains shown)
VH: EVKLVESGGDLVKPGGSLKLSCAASGFTFSSYAMSWVRQNPEKRLEWVASISKGGNTYYPNSVKGRFTISRDNARNILYLQMSSLRSEDTALYYCARGWGDYGWFAYWGQVTLVTVSA
VL: DIKMTQSPSSMYASLGERVTITCKASQDINRYLNWFQQKPGKSPKTLIYRANRLLDGVPSRFSGSGSGQDYSLTISSLDYEDMGIYYCLQYDEFPLTFGDGTKLELK
For B4, in the assay with full length Tau (Tau441), the “EC50 (read off the curve)” value was approximately 0.2 µg/mL.

B5: Antibody 3 (antibody, V domains shown)
VH: QSVEESGGRLVTPGTPLTLTCTVSGFSLSSYAMIWVRQAPGKGLEWIGFISRSGITYYASWAKGRFTISKTSTTVDLKMTSLTTEDTATYFCAREFGAVGSDYYRDAFNLWGPGTLVTVSS
VL: DIVMTQTPSSVSAAVGGTVTINCQASQNIYSNLAWYQQKPGQRPRLLIYGASNLASGVPSRFKGSRSGTEFTLTISDLECADAATYYCQGYDYSTAGAYPFGGGTAVVVKG
For B5, the binding result in the assay with Peptide B, with Peptide A, with Peptide D and in the assay with Peptide C was “no binding” each time.

B6: Antibody 2 (antibody, V domains shown)
VH: QSVEESGGRLVTPGTPLTLTCTVSGFSLSSYAMIWVRQAPGKGLEWIGFISRSGITYYASWAKGRFTISKTSTTVDLKMTSLTTEDTATYFCAREFGAVGSDYYRDAFNLWGPGTLVTVSS
VL: DIVMTQTPASVEAAVGGTVTINCQASESINSWLSWYQQKPGQPPNLLIYRASTLASGVPSRFSGGGSGTEYTLTISDLECADAVTYYCQSYYEEDGIGYAFGGGTEVVVEG
notes: Rabbit monoclonal antibody; also called 30H10L2
On to B6, for which the binding result is reported as “no binding (tested: 10^4 ng/mL)” with full length Tau (Tau441) and “no binding” in the assay with Peptide C.

B7: Antibody 5 (antibody, V domains shown)
VH: QSVEESGGGLVTPGGTLTLTCTVSGFSLSNYAMSWVRQAPGKGLEWIGFISRSGITYYASWAKGRFTISKTSTTVDLKITSPTTEDTAAYFCAREFGAVGSDYYRDALRLWGPGTLVTVSS
VL: DIVMTQTPSSVSAAVGGTVTIKCQASQSIGSNLAWYQQKPGQPPKLLIYGASTLESGVPSRFKGSGSGTEYTLTISDLECADAATYYCQSYYEGSDIGYAFGGGTEVVVEG
notes: Rabbit monoclonal antibody; also called 62H10L7
For the molecule B7, the binding result in the assay with full length Tau (Tau441) is “no binding (tested: 10^4 ng/mL)”; with Peptide C it was “no binding”.
